Source: the DeepSol protein solubility set

experiment: soluble on expression in E. coli; label from the status in PepcDB or PDB records

Row | Sequence | soluble on expression in E. coli
1 | MGSDKIHHHHHHMTCKRALTAYPELLSRTVAAPSWVMPGTVRDNAIFLSGEVDEVGLCFFETAACLAYGENDLPEHLADLPLGWHVHLPGDLPWCDGGAEAAVPALRLMDKVAFLGAHRAVLHPPVGFADGAARLVAFVRAWEAAGRNPEDLCLENIRGEDLTGLWRTLCDLGCKVCLDMGHVLSYGQYGLLSLPGLSGRTSMLHANAPGPAGRHLSLDTLDGAGGGVGRAMCALLPDDAVVMVEVFDWEGVRRSLPLLETWFAAQR | not soluble
2 | MGSDKIHHHHHHMTCRRITFVPNFMIRDARVLRAGFVPREVEHRDAEVNHLSSVLEPITNGEPADTAIVTGPSGTGKTCISQFVTERLREEVLNVEATYVNCWRNYTRFRTLYQILDDFGETIDIHRQSTPHDELIDRLQQYDGPRTVIILDEVDQLEDPGIIYDLHSLPHFAVICIANKEEDLFSRVDDRLVSRLRSSEHVRMDKYHDEQLHDILAARVKGGLDQDVITTNQLDRIADAAAGDARLAIGILRTAASKADRESRERITDDILLNAAEDARAQIKQKNLDSLIPHQRLVYDVVREHGPLGPSEIYDHYKRKVDDPRTKRTIRTYLSKMTQYNVLEAEGTSRDREYSLVDSTAPSVTQ | not soluble
3 | MGSDKIHHHHHHMTDERIHILRDILLELHNGASPESVQDRFDATFTGVSAIEISLMEHELMNSDSGVTFEDVMELCDVHANLFKNAIKGVEVSDTEHPGHPVRVFKEENLALRAALIRIRRLLDTYESMEDEEMLAEMRKGLVRQMGLVGQFDIHYQRKEELFFPIMERYGHDSPPKVMWGVDDQIRELFQTALTTAKSLPEVSISSVKEAFEAFATEFESMIFKEESILLMILLESFTQDDWLQIAEESDAYGYAIIRPSEKWVPERQSFIEEKIAEEPVQLDTAEGQVQQVIDTPEGHFTITFTPKEKEAVLDRHSQQAFGNGYLSVEQANLILNHLPMEITFVNKEDIFQYYNDNTPADEMIFKRTPSQVGRNVELCHPPKYLDKVKTIMKGLREGSKDKYEMWFKSESRGKFVHITYAAVHDEDGEFQGVLEYVQDIQPYREIDTDYFRGLE | not soluble
4 | MGSDKIHHHHHHMTDISWEMNDQTIVRKTDKIARQDTLPDLTLKKVKQGDRMRFDAHVNVDSMAEGQHLKRVTIFSNVPGGGTWELISDEGVAVGGRGTAPSPQMYFAAGLGLCLMSHVEMLAKSGEFEITSARLEQRSTWTTTMDLGAVAPANIYGKGEHMQMNLIIESPEPTPKIAEFIAYCRQACMALQTVAAATPVATGLYLNGAHIGDVGGTGPFAKVA | not soluble
5 | MGSDKIHHHHHHMTDLKTTFAGLSLRNPIIISSSGLTNSAGKNKRLAEAGAGAIVLKSLFEEQIMLEADQLKDPAFYPEASDYLEEYIREHKLAEYLTLIKESKKECSIPIIASINCYSDSEWVDFAKQIQEAGADALEINILALQSDVQYTYGSFEQRHIDILRHIKQTVTIPVIMKLGDNLTNPVALIDQLYANGAAAVVLFNRFYQPDINIENMEQVSGEVFSTSADLATPLRWIGIASSVVNKIDYAASGGVANPEAVVKAILAGASAVEVCSAIYQNTNAFIGESTRFLSAWMERKGFKNIAQFKGKLNIKDVQGINTFERTQFLKYFGKKEA | not soluble
6 | MGSDKIHHHHHHMTDTISYQYAAPSVLQRSSDQDELFLAKYSEIEKKEAPCFFWGKLTQPYMTARCLIALSNVVQSSFNLTPAQLSMLKDPIVTAGNERLRFEGFSNCAGVYARVDVLPDGHDGEFLENGTTNVDFNAGMISALGSISKQEKVVMSVGPKEVGLYNKGEKVIERKVPLPVKWIKGLTTVQIYQSVAERMYSFNRIQTLQLFQTLPKGTVKCDYYLVMRGQKPAFSPVKSLNAVCIGGVHRLRLLEPLLPFADELRVFVHPTMQSTIWQLYFGPVRFSLSLSRECWRGFSGEGAALDALLEDVPEKWIAAMDKYSYANQQFNPTLFAIEEHIDLDKVDSLSARLAAMGLLGFDLDDNSFFYRRLPFKTERILSLNPRMIAAEKLLEEEKVEIISNDGNRTEARVAGSGGVRHTVILDRESEKERCTCTWFSGNQGERGACKHILAVKKRVQWKN | not soluble
7 | MGSDKIHHHHHHMTDYFSYLGLQPSREELIQRFGLELDKLMTLDLNLTGRPSYLYSRERNGSGEASSTAFAQLLLDSLASKDVSILVTGWPVRSSIDVSIGEADGPIGAAAIARALHMTTGAVSLAMAPAPLAAQVAAAFRSAGATIIDFDAFERLSKGNERLFGVAIVGLDVDCDLSNYFAELLQNVKPKTVIAIEHYGFSAEGKPYHGTGNVVEPGTALTHPLFDQAMAEGLICGSCVDNPNEVGTSRLHDAGVKHPPMRNDFANLLVGSSANSAAFALCAALAGLSATPTAAFPGSLDEAGIAATLAHGAIDPFSGTADPSFGVDTIESPYHAWIADLMGRLAKGYCVAAATERHL | not soluble
